Assay results published in publication PMC10786891, “Massively parallel profiling of RNA-targeting CRISPR-Cas13d”.
Changes are numbered by the printed parent chain. Names may count otherwise.

B1: target 1 MT 5'PFS GUU 3'PFS AGU (mixed)
RNA 1: CACCCGUGCAAAAAUGCAGGGGUCUAAAACUGAGCGGAUAACCUCUCUAUGG
RNA 2: GGGAAUGGAUCCACAUCUACGAAUUCGUUCCAUAGAGAGGUUAUCCGCUCAAGUAGAUCGGAAGAGCACACGU
B2: target 1 MT 5'PFS GUU 3'PFS GGG (mixed)
RNA 1: B1 RNA 1
RNA 2: B1 RNA 2 with A52G, U54G
B3: target 1 MT 5'PFS UCG 3'PFS AUA (mixed)
RNA 1: B1 RNA 1
RNA 2: B1 RNA 2 with G27U, U28C, U29G, G53U, U54A
B4: target 1 MT 5'PFS UGU 3'PFS CAU (mixed)
RNA 1: B1 RNA 1
RNA 2: B1 RNA 2 with G27U, U28G, A52C, G53A
B5: target 1 MT 5'PFS CCC 3'PFS UGC (mixed)
RNA 1: B1 RNA 1
RNA 2: B1 RNA 2 with G27C, U28C, U29C, A52U, U54C
B6: target 1 MT 5'PFS CCG 3'PFS AAA (mixed)
RNA 1: B1 RNA 1
RNA 2: B1 RNA 2 with G27C, U28C, U29G, G53A, U54A
B7: target 1 MT 5'PFS UAA 3'PFS UUA (mixed)
RNA 1: B1 RNA 1
RNA 2: B1 RNA 2 with G27U, U28A, U29A, A52U, G53U, U54A
B8: target 1 MT 5'PFS UAA 3'PFS UUC (mixed)
RNA 1: B1 RNA 1
RNA 2: B1 RNA 2 with G27U, U28A, U29A, A52U, G53U, U54C
B9: target 1 C2U,U11G (mixed)
RNA 1: B1 RNA 1
RNA 2: B1 RNA 2 with U29A, U41G, C50U, A52C, G53C, U54G
B10: target 1 MT 5'PFS AAA 3'PFS CGU (mixed)
RNA 1: B1 RNA 1
RNA 2: B1 RNA 2 with G27A, U28A, U29A, A52C
B11: target 1 MT 5'PFS UAA 3'PFS UUG (mixed)
RNA 1: B1 RNA 1
RNA 2: B1 RNA 2 with G27U, U28A, U29A, A52U, G53U, U54G
B12: target 1 MT 5'PFS AAA 3'PFS CGA (mixed)
RNA 1: B1 RNA 1
RNA 2: B1 RNA 2 with G27A, U28A, U29A, A52C, U54A
B13: target 1 MT 5'PFS UAA 3'PFS UUU (mixed)
RNA 1: B1 RNA 1
RNA 2: B1 RNA 2 with G27U, U28A, U29A, A52U, G53U
B14: target 1 MT 5'PFS UGU 3'PFS UAA (mixed)
RNA 1: B1 RNA 1
RNA 2: B1 RNA 2 with G27U, U28G, A52U, G53A, U54A
B15: target 1 MT 5'PFS UCA 3'PFS AUC (mixed)
RNA 1: B1 RNA 1
RNA 2: B1 RNA 2 with G27U, U28C, U29A, G53U, U54C
B16: target 1 MT 5'PFS AAC 3'PFS AGA (mixed)
RNA 1: B1 RNA 1
RNA 2: B1 RNA 2 with G27A, U28A, U29C, U54A
B17: target 1 MT 5'PFS AAC 3'PFS AGG (mixed)
RNA 1: B1 RNA 1
RNA 2: B1 RNA 2 with G27A, U28A, U29C, U54G
B18: target 1 MT 5'PFS GGA 3'PFS AAU (mixed)
RNA 1: B1 RNA 1
RNA 2: B1 RNA 2 with U28G, U29A, G53A
B19: target 1 MT 5'PFS GGA 3'PFS AAG (mixed)
RNA 1: B1 RNA 1
RNA 2: B1 RNA 2 with U28G, U29A, G53A, U54G
B20: target 1 insG 3' of 14,insA 3' of 7 (mixed)
RNA 1: B1 RNA 1
RNA 2: GGGAAUGGAUCCACAUCUACGAAUUCGUACCAUAGAGAGGGUUAUCACGCUCACCGAGAUCGGAAGAGCACACGU
B21: target 1 MT 5'PFS GGA 3'PFS AAA (mixed)
RNA 1: B1 RNA 1
RNA 2: B1 RNA 2 with U28G, U29A, G53A, U54A
B22: target 1 MT 5'PFS CAU 3'PFS UUA (mixed)
RNA 1: B1 RNA 1
RNA 2: B1 RNA 2 with G27C, U28A, A52U, G53U, U54A
B23: target 1 MT 5'PFS GGA 3'PFS AAC (mixed)
RNA 1: B1 RNA 1
RNA 2: B1 RNA 2 with U28G, U29A, G53A, U54C
B24: target 1 MT 5'PFS CUC 3'PFS CAU (mixed)
RNA 1: B1 RNA 1
RNA 2: B1 RNA 2 with G27C, U29C, A52C, G53A
B25: target 1 MT 5'PFS GGG 3'PFS GUG (mixed)
RNA 1: B1 RNA 1
RNA 2: B1 RNA 2 with U28G, U29G, A52G, G53U, U54G
B26: target 1 MT 5'PFS UUG 3'PFS UCU (mixed)
RNA 1: B1 RNA 1
RNA 2: B1 RNA 2 with G27U, U29G, A52U, G53C
B27: target 1 MT 5'PFS GAC 3'PFS UGA (mixed)
RNA 1: B1 RNA 1
RNA 2: B1 RNA 2 with U28A, U29C, A52U, U54A
B28: target 1 MT 5'PFS GGA 3'PFS CCG (mixed)
RNA 1: B1 RNA 1
RNA 2: B1 RNA 2 with U28G, U29A, A52C, G53C, U54G
B29: target 1 MT 5'PFS UUG 3'PFS UCG (mixed)
RNA 1: B1 RNA 1
RNA 2: B1 RNA 2 with G27U, U29G, A52U, G53C, U54G
B30: target 1 MT 5'PFS UUA 3'PFS UCG (mixed)
RNA 1: B1 RNA 1
RNA 2: B1 RNA 2 with G27U, U29A, A52U, G53C, U54G
B31: target 1 C2U,A9G (mixed)
RNA 1: B1 RNA 1
RNA 2: B1 RNA 2 with U29A, A43G, C50U, A52C, G53C, U54G
B32: target 1 MT 5'PFS UUA 3'PFS UCA (mixed)
RNA 1: B1 RNA 1
RNA 2: B1 RNA 2 with G27U, U29A, A52U, G53C, U54A
B33: target 1 MT 5'PFS CAG 3'PFS CUG (mixed)
RNA 1: B1 RNA 1
RNA 2: B1 RNA 2 with G27C, U28A, U29G, A52C, G53U, U54G
B34: target 1 MT 5'PFS GGA 3'PFS CCU (mixed)
RNA 1: B1 RNA 1
RNA 2: B1 RNA 2 with U28G, U29A, A52C, G53C
B35: target 1 MT 5'PFS GAC 3'PFS UGU (mixed)
RNA 1: B1 RNA 1
RNA 2: B1 RNA 2 with U28A, U29C, A52U
B36: target 1 MT 5'PFS UUA 3'PFS ACA (mixed)
RNA 1: B1 RNA 1
RNA 2: B1 RNA 2 with G27U, U29A, G53C, U54A
B37: target 1 MT 5'PFS UUA 3'PFS ACC (mixed)
RNA 1: B1 RNA 1
RNA 2: B1 RNA 2 with G27U, U29A, G53C, U54C
B38: target 1 MT 5'PFS UUA 3'PFS ACG (mixed)
RNA 1: B1 RNA 1
RNA 2: B1 RNA 2 with G27U, U29A, G53C, U54G
B39: target 1 MT 5'PFS GUC 3'PFS UGG (mixed)
RNA 1: B1 RNA 1
RNA 2: B1 RNA 2 with U29C, A52U, U54G
B40: target 1 MT 5'PFS GGC 3'PFS CAG (mixed)
RNA 1: B1 RNA 1
RNA 2: B1 RNA 2 with U28G, U29C, A52C, G53A, U54G

Molecular target: T1, EsCas13d, nuclease-dead (Eubacterium siraeum, UniProt B0MS50, R295A;H300A;R849A;H854A)
T1 sequence: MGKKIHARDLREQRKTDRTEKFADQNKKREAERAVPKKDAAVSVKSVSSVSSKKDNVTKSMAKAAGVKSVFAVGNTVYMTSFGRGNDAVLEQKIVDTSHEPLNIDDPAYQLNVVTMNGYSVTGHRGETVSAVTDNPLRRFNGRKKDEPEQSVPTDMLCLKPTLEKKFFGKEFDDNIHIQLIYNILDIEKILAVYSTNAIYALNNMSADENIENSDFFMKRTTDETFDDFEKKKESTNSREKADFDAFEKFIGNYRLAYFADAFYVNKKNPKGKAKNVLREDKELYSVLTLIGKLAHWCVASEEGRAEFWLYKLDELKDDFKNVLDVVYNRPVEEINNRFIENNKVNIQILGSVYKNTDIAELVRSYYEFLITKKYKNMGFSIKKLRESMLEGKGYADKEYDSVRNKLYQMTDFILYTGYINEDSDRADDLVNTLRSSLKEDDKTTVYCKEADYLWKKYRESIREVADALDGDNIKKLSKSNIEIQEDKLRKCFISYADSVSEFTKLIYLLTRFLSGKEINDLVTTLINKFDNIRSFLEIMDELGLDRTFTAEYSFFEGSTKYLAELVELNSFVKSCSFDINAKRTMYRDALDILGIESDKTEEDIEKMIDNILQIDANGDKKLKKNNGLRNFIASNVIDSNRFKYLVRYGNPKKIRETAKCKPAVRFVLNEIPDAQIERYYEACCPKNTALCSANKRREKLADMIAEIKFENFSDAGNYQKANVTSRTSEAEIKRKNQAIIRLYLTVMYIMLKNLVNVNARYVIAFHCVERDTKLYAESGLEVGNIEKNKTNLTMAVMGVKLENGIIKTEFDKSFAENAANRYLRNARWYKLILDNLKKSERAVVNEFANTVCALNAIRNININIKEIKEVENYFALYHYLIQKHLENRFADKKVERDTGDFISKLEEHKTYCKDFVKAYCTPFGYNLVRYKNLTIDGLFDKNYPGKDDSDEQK
Experiment: crRNA (strand 1, pre-loaded); Mg2+; 40 mM Tris-HCl pH 7.5, 150 mM NaCl, 6 mM MgCl2, 1 mM DTT, 0.1% Tween-20, 0.2 mg/ml BSA; 25 C; 10 min per concentration, then washed
Conditions: tags: His6-TwinStrep-SUMO cleaved; N-terminal SNAP kept (SNAP-Surface 488); label: 3' end held by stalled T7 RNA polymerase

| Binder | Kd [nM] |
| --- | --- |
| B1 | 21.7 ± 3.85 |
| B2 | 81 ± 29 |
| B3 | 37.5 ± 10.5 |
| B4 | ~52 |
| B5 | 8.55 ± 3.25 |
| B6 | 27.5 ± 8 |
| B7 | 28.5 ± 6.5 |
| B8 | 22.9 ± 4.25 |
| B9 | 18.4 ± 1 |
| B10 | 35 ± 16 |
| B11 | 16.8 ± 2.95 |
| B12 | 30 ± 14.5 |
| B13 | 49 ± 14 |
| B14 | 56 ± 17 |
| B15 | ~11 |
| B16 | ~27 |
| B17 | 59 ± 19 |
| B18 | 21 ± 5.5 |
| B19 | 24.1 ± 3.95 |
| B20 | 6.2 ± 0.5 |

| Binder | Kd [nM] |
| --- | --- |
| B21 | 41 ± 10 |
| B22 | ~70 |
| B23 | 24.5 ± 5 |
| B24 | ~55 |
| B25 | 7.25 ± 0.95 |
| B26 | 20.9 ± 3.9 |
| B27 | ~27.2 |
| B28 | 28.5 ± 7.5 |
| B29 | 58.5 ± 22.5 |
| B30 | 13.6 ± 2.85 |
| B31 | 15.4 ± 1.4 |
| B32 | 25 ± 6.5 |
| B33 | 19 ± 7.5 |
| B34 | 10.3 ± 2.85 |
| B35 | 41.5 ± 12.5 |
| B36 | 37 ± 13 |
| B37 | ~22.5 |
| B38 | 21.8 ± 4.7 |
| B39 | 65 ± 15.5 |
| B40 | 25.5 ± 8.5 |
